Assay results as given in US20210363269A1 (ALX ONCOLOGY, published 2021).

Assays:
human SIRP-α v1 [1] = target: T1, human SIRP-α v1 (human, UniProt P78324 31-149); assay: SPR
T1 construct: also called Human v1; Human V1
Outline: (§1)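 Runs took place at 25° C in PBS pH 7.4 containing 0.01% Tween-20 on a ProteOn XPR36 biosensor, with purified antibodies either amine-coupled to a GLC chip or captured through biotinylated Protein A on an NLC chip. SIRP analytes went in by one-shot kinetic injection at nominal concentrations based on A280 absorbance. Apparent rate constants came from a global simple Langmuir fit of double-referenced data, and KD was calculated as kd/ka.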

BALBc mouse SIRP-α [2] = target: T2, BALBc mouse SIRP-α (mouse (BALB/c strain)); assay: SPR
T2 chain: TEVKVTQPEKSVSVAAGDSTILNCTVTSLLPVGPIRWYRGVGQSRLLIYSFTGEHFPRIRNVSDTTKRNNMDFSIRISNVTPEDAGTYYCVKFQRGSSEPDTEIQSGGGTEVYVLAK
Outline: as §1

NOD mouse SIRP-α [3] = target: T3, NOD mouse SIRP-α (mouse (NOD strain)); assay: SPR
T3 chain: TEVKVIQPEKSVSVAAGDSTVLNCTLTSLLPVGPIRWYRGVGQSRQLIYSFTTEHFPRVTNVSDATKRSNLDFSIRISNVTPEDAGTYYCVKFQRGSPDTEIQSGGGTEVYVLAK
Outline: as §1

BL6 mouse SIRP-α [4] = target: T4, BL6 mouse SIRP-α (mouse (C57BL/6 strain), UniProt P97797 32-148); assay: SPR
T4 construct: also called C57BL/6
T4 sequence: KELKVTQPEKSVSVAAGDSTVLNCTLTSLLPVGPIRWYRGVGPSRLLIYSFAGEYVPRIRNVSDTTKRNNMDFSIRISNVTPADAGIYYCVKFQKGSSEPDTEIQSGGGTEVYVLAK
Outline: as §1

cynomolgus SIRP-α = target: T5, cynomolgus SIRP-α (cynomolgus monkey, UniProt Q5TFQ8 30-148 (human entry), limits assumed); assay: SPR, antibody on GLC chip
T5 construct: also called cyno1
T5 chain: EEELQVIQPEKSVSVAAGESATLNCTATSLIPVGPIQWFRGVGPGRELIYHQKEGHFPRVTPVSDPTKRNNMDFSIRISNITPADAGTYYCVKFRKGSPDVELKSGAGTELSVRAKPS
Outline: (§2)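 Protein A-purified antibodies were diluted to 80 nM in 10 mM sodium acetate pH 4.5 and amine-coupled (~1000 RU) to a GLC chip of a ProteOn XPR36 biosensor. SIRP analytes were injected one-shot at 100, 33, 11, 3.7, 1.2 and 0 nM in PBS pH 7.4 with 0.01% Tween-20 at 25° C. Association ran 90 s at 100 μL/min and dissociation 1200 s. KD came from double-referenced data fitted globally to a Langmuir model, as kd/ka.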

human SIRP-α v1 [5] = target: T1, human SIRP-α v1; assay: SPR, antibody on GLC chip
Outline: as §2

human SIRPβ isoform 1 = target: T6, human SIRPβ isoform 1 (human, UniProt O00241 30-148); assay: SPR, antibody on GLC chip
T6 construct: also called Beta; Human SIRPb
T6 sequence (O00241 30-148 limits assumed): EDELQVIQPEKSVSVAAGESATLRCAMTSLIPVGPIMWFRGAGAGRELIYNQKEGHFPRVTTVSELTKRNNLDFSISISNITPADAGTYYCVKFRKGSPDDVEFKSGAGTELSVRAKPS
Outline: as §2

human SIRP-α v2 = target: T7, human SIRP-α v2 (human); assay: SPR, antibody on GLC chip
T7 construct: also called Human v2; Human V2
T7 sequence (chain, as listed by the source limits assumed): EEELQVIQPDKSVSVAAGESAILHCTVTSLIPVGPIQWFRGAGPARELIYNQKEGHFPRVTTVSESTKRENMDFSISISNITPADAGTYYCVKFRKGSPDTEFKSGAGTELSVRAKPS
Outline: as §2

human SIRPγ isoform 1 = target: T8, human SIRPγ isoform 1 (human, UniProt Q9P1W8 29-147); assay: SPR, antibody on GLC chip
T8 construct: also called Gamma; Human SIRPg
T8 sequence (Q9P1W8 29-147 limits assumed): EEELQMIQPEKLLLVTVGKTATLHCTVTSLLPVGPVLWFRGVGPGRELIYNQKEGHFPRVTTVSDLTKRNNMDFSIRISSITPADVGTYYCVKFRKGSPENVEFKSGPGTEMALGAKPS
Outline: as §2

BL6 mouse SIRP-α [6] = target: T4, BL6 mouse SIRP-α; assay: SPR, antibody on GLC chip
Outline: as §2

BALBc mouse SIRP-α [7] = target: T2, BALBc mouse SIRP-α; assay: SPR, antibody on GLC chip
Outline: as §2

NOD mouse SIRP-α [8] = target: T3, NOD mouse SIRP-α; assay: SPR, antibody on GLC chip
Outline: as §2

T1 sequence (P78324 31-149 limits assumed): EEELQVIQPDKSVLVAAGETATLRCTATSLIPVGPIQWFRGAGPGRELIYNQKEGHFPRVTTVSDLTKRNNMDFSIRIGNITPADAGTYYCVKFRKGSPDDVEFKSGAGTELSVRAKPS

B1: Hum8/AB21_HC_Mutall (antibody, V domains shown)
VH: EVQLVESGGGVVQPGGSLRLSCAASGFTFSSNAMSWVRQAPGKGLEWVAGISAGGSDTYYPASVKGRFTISRDNSKNTLYLQMNSLRAEDTAVYYCARETWNHLFDYWGQGTLVTVSS
VL: SYELTQPPSVSVSPGQTARITCSGGAYSSYYYAWYQQKPGQAPVLVIYSDSKRPSGIPERFSGSSSGTTVTLTISGVQAEDEADYYCGGYDQSSYTNPFGGGTKLTVL
notes: also called Hum8/AB21mutall
Kd (human SIRP-α v1 [1]): 0.0201 nM
Kd (BALBc mouse SIRP-α [2]): 71.2 nM
Kd (NOD mouse SIRP-α [3]): 27.8 nM

B2: Hum1/AB25_HC_Mutall (antibody, V domains shown)
VH: EVQLVESGGGVVQPGGSLRLSCAASGFTFSSNAMSWVRQAPGKGLEWVAGISSGSDTYYGDSVKGRFTISRDNSKNTLYLQMNSLTAEDTAVYYCARETWNHLFDYWGQGTLVTVSS
VL: SYELTQPPSVSVSPGQTARITCSGGSYSSYYYAWYQQKPGQAPVTLIYSDDKRPSNIPERFSGSSSGTTVTLTISGVQAEDEADYYCGGYDQSSYTNPFGGGTKLTVL
Kd (human SIRP-α v1 [1]): 0.00519 nM
Kd (BL6 mouse SIRP-α [4]): 10.3 nM
Kd (BALBc mouse SIRP-α [2]): 7.25 nM
Kd (NOD mouse SIRP-α [3]): 4.83 nM

B3: Hum8/AB25_HC_Mutall (antibody, V domains shown)
VH: EVQLVESGGGVVQPGGSLRLSCAASGFTFSSNAMSWVRQAPGKGLEWVAGISSGSDTYYGDSVKGRFTISRDNSKNTLYLQMNSLTAEDTAVYYCARETWNHLFDYWGQGTLVTVSS
VL: SYELTQPPSVSVSPGQTARITCSGGAYSSYYYAWYQQKPGQAPVLVIYSDSKRPSGIPERFSGSSSGTTVTLTISGVQAEDEADYYCGGYDQSSYTNPFGGGTKLTVL
Kd (human SIRP-α v1 [1]): 0.0262 nM
Kd (BL6 mouse SIRP-α [4]): 497000 nM
Kd (BALBc mouse SIRP-α [2]): 59.9 nM
Kd (NOD mouse SIRP-α [3]): 20.5 nM

B4: Hum1/AB27_HC_Mutall (antibody, V domains shown)
VH: EVQLVESGGGVVQPGGSLRLSCAASGFRFSSYAMSWVRQAPGKGLEWVSGISSGGDTYYVDSVKGRFTISRDNSKNTLYLQMNSLRAEDTAVYYCARETWNHLFDYWGQGTLVTVSS
VL: SYELTQPPSVSVSPGQTARITCSGGSYSSYYYAWYQQKPGQAPVTLIYSDDKRPSNIPERFSGSSSGTTVTLTISGVQAEDEADYYCGGYDQSSYTNPFGGGTKLTVL
Kd (human SIRP-α v1 [1]): 0.00437 nM
Kd (BL6 mouse SIRP-α [4]): 9.03 nM
Kd (BALBc mouse SIRP-α [2]): 5.77 nM
Kd (NOD mouse SIRP-α [3]): 2.92 nM

B5: antibody 135 variant, light chain Mut / heavy chain Mut (antibody, V domains shown)
VH: EVQLVESGGGVVQPGGSLRLSCAASGFSFSIYAVSWVRQAPGKGLEWVSTIGADDTYYADSVKGRFTISRDNSKNTLYLQMNSLRAEDTAVYYCAKDSTVGWSGDFFDYWGQGTLVTVSS
VL: EIVLTQSPATLSVSPGERVTLSCRASQNVRSDIAWYQQKPGQAPRLLIYAASSRDTGIPARFSGSGSGTDFTLTISSLQSEDFGVYYCQQYYDWPPFTFGGGTKVEIK
Kd (cynomolgus SIRP-α): 0.127 nM
Kd (human SIRP-α v1 [5]): 0.192 nM
Kd (human SIRPβ isoform 1): 0.188 nM
Kd (human SIRP-α v2): 0.0175 nM
Kd (human SIRPγ isoform 1): 0.733 nM
binding result (BL6 mouse SIRP-α [6]): no binding
binding result (BALBc mouse SIRP-α [7]): no binding
binding result (NOD mouse SIRP-α [8]): no binding
